In one test the target is P6. The test is described as follows: ELISA, unpurified hybridoma supernatant on peptide. (In general: In an ELISA, binding on a coated surface is turned into a signal by an enzyme label.)
The target in test [1] is T1, P6-Hpu.
T1 construct: Synthetic peptide
The test is described as follows: SPR, Biacore T200, peptide captured, Fab flowed. A general note: In SPR one partner is held on a chip, and binding of the other changes the refractive index at the surface.

The target of test [2] is T1, P6-Hpu. As to the kind of experiment: SPR, ratio of KD values.
Test [3] deals with T2, endogenous eIF5A (human, UniProt P63241 2-154).
T2 construct: also called endogenous eIF5A protein of 293T cells
As to the kind of experiment: immunoprecipitation from 293T cell lysate (diluted 1, 2, 4, 8-fold) with antibody on protein A beads, SDS-PAGE, Coomassie blue.

Test [4] deals with T3, Flag-tagged human K50A eIF5A (human, UniProt P63241 1-154).
T3 construct: also called K50A variant; K50A mutant eIF5A
The test is described as follows: Western blot of lysates of 293 cells transfected with DHS-DOHH and flag-eIF5A WT or K50A. For orientation: In western blotting, separated proteins are transferred to a membrane and probed.

Test [5] addresses T2, endogenous eIF5A. The test is described as above.
In test [6] the target is T4, Flag-tagged human wild-type eIF5A (human, UniProt P63241 1-154).
T4 construct: also called transfected wild-type eIF5A; WT eIF5A
Described as above.

Test [7] addresses T1, P6-Hpu. As to the kind of experiment: ELISA, unpurified hybridoma supernatant on peptide.

Where a chain is given by its changes, count along the chain named. Where only a bound is given, the exact number is not on record here.

T2 sequence (P63241 2-154 limits assumed): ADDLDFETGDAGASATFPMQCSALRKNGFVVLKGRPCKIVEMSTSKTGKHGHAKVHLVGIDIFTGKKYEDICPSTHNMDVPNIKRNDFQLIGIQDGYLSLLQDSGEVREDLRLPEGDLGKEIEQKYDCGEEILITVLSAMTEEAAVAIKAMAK
T4 sequence (P63241 whole entry): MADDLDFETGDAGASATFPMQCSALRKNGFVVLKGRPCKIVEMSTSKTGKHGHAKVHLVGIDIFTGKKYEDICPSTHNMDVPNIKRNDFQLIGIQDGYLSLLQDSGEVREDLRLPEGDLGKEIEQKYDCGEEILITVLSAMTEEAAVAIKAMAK
T3 sequence (P63241 whole entry K50A): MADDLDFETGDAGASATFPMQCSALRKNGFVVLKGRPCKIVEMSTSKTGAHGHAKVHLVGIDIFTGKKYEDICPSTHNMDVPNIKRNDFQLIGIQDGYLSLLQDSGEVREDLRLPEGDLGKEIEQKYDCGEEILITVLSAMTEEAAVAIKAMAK

B1: mAbHpu24 (antibody, V domains shown)
VH: QEQLKESGGRLVAPGTPLTLTCTVSGFDISDYAMIWVRQAPGKGLEWIGIIYGGSNKLAYAKWAKGRFTISRTSTTVDLKITSPTTEDTATYFCARGYGSMDGYDRLNLWGQGTLVTVSS
VL: AAVLTQTPSPVSAAVGGTVTISCQSSETVYRGDWLSWFQKKPGQPPKLLIYDASYLASGVSSRFSGSGSGTHFTLTISGVQCDDAATYYCLGGYYDDADDTFGGGTEVVVK
notes: also called antibody Hpu24
Take B1: in the test with P6, the binding result is on record as “no binding”.

B2: FabHpu24 (Fab, V domains shown)
VH: B1 VH
VL: AAVLTQTPSPVSAAVGGTVTISCQSSETVYRGDWLSWFQKKPGQPPKLLIYDASYLASGVSSRFSGSGSGTHFTLTISGVQCDDAATYYCLGGYYDDADDTFGGGTEVVVKG
B2 registered a Kd in the test with P6-Hpu [1] of 176 nM.

B3: FabHpu24.B (Fab, V domains shown)
VH: B1 VH with G54V, S55I, K57D
VL: B2 VL with Q24R, S26R, E27Q, T28R, R31L, Y55F, L56R, A57G, S58D
B3 gave a Kd with P6-Hpu [1] of 61 nM. Moreover, the “Fold improvement in KD over parent FabHpu24” value in the test with P6-Hpu [2] came out at 2.9 fold.

B4: mAbHpu24.B (antibody, V domains shown)
VH: B1 VH with G54V, S55I, K57D
VL: B1 VL with Q24R, S26R, E27Q, T28R, R31L, Y55F, L56R, A57G, S58D
notes: also called antibody Hpu24.B
Take B4: in the test with endogenous eIF5A [3], the binding result is on record as “binds”.

B5: mAbHpu91 (antibody, V domains shown)
VH: QSVEESGGRLVTPGTPLTLTCTVSAFSLSTYTINWVRQAPGKGLEWIGDIWSDGNTYYANWAKGRFTISKTSTTVDLKITSPTTEDTATYFCARDSWDTSIYYGLDLWGQGTLVTVSS
VL: AIKMTQTPSSVSAAVGGTVTINCQASEDIKRYLAWYQQKPGQPPKLLIYAASKLASGVSSRFTGSGSGTEYTLTISGVQCDDAATYYCQQGYTSTNVNNAFGGGTEVVVK
notes: also called antibody Hpu91
Regarding B5, the binding result was “no binding” in test [4]; “binds” with endogenous eIF5A [5]; “binds” in test [6]; “binds” with P6-Hpu [7]; “no binding” in the test with P6.

B6: FabHpu98.61 (Fab, V domains shown)
VH: B5 VH with F26C, S29Y, T30H, Y31C, I33M, W51Y, S52T, T99A, I101S
VL: AIKMTQTPSSVSAAVGGTVTINCQASEDIKRYLAWYQQKPGQPPKLLIYAASKLASGVSSRFKGSGSGTEYTLTISGVQCDDAATYYCQQGYTSSNVNNAFGGGTEVVVKG
Consider B6, for which the affinity with P6-Hpu [1], expressed as Kd, was 229 nM. Also, the “Fold improvement in KD over parent FabHpu98” value with P6-Hpu [2] was greater than 4.4 fold.

Usually Kd stands for the concentration at which binding is half-saturated.

The record behind these values is patent US20210072250A1 (Genentech, published 2021).
